Measurements: US20050282743A1, “Molecular interactions in cells” (Arbor Vita Corporation, priority 2001, published 2005)
Changes are numbered by the printed parent chain.

Experiments:
[1] = molecular target: GST-PSD95 PDZ domains 1, 2, 3 (Homo sapiens), P78352; assay: G assay competition vs 10 uM biotin-KV1.3 20-mer; competitor 50 uM
[2] = molecular target: GST-PSD95 PDZ domains 1, 2, 3 (Homo sapiens), P78352; assay: G assay competition vs 20 uM biotin-CD46 20-mer; competitor 50 uM
[3] = molecular target: GST-PSD95 PDZ domains 1, 2, 3 (Homo sapiens), P78352; assay: G assay competition vs 10 uM biotin-CD95 20-mer; competitor 50 uM
[4] = molecular target: GST-PSD95 PDZ domains 1, 2, 3 (Homo sapiens), P78352; assay: G assay competition vs 20 uM biotin-CLASP-2 20-mer; competitor 50 uM
[5] = molecular target: T1, GST-EZRIN Binding Protein 50 PDZ domain 2 (Homo sapiens (Human)), O14745; assay: G' assay; also: key of the grades not given here
T1 chain: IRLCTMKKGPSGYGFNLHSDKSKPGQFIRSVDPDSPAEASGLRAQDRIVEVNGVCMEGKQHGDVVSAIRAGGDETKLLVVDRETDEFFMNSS

[6] = molecular target: T2, GST-Syntrophin gamma 2 PDZ domain 1 (Homo sapiens (Human)), Q9NY99; assay: G' assay; also: key of the grades not given here
T2 chain: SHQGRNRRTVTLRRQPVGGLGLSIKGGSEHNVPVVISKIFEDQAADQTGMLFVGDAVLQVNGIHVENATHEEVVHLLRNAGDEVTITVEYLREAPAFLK

[7] = molecular target: GST-KIAA807 [GST: P08515]; assay: G' assay; also: key of the grades not given here
Sequence of GST-KIAA807 [GST: P08515] (P08515 whole entry, the tested form may be a part): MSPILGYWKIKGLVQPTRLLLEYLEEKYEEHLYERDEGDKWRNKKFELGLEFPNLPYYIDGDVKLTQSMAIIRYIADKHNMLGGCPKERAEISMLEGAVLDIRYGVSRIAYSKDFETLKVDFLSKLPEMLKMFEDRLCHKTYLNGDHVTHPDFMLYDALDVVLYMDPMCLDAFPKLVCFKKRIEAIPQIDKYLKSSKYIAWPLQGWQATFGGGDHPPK

[8] = molecular target: T3, GST-KIAA1526 PDZ domain 1 (Homo sapiens (Human)), Q9P202; assay: G' assay; also: key of the grades not given here
T3 chain: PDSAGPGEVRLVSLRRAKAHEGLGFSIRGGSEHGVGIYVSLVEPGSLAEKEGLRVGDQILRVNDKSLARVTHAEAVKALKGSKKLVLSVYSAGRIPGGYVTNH

[9] = molecular target: T4, GST-Shank 3 PDZ domain 1 (human (hypothetical, computer cloned)), Q9BYB0; assay: G' assay; also: key of the grades not given here
T4 chain: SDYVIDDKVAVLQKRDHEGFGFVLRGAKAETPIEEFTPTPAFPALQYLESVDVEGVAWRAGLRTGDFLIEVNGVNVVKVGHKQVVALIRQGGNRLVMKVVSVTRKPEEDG

[10] = molecular target: T5, GST-KIAA0807(S) PDZ domain 1 (Homo sapiens (Human)), Q6P0Q8; assay: G' assay; also: key of the grades not given here
T5 chain: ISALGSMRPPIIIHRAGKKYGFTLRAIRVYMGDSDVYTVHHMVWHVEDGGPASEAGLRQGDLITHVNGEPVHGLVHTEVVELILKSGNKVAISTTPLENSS

[11] = molecular target: T6, GST-rat SHANK 3 PDZ domain 1 (rat), Q9JLU4; assay: G' assay; also: key of the grades not given here
T6 chain: T4 chain with V11I, R59K, A86G, G110S

[12] = molecular target: T7, GST-FLJ 10324 PDZ domain 1 [GST: P08515]; assay: G' assay; also: key of the grades not given here
T7 chain: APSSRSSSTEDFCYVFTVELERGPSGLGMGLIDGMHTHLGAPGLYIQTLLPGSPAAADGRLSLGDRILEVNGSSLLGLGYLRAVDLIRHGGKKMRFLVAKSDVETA

[13] = molecular target: T8, GST-KIAA0973 PDZ domain 1 (Homo sapiens (Human)), Q9Y2H9; assay: G' assay; also: key of the grades not given here
T8 chain: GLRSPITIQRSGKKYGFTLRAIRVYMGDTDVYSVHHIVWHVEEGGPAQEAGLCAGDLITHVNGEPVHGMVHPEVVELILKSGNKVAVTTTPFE

[14] = molecular target: T9, GST-INADL PDZ domain 8 (Homo sapiens (Human)), Q8NI35; assay: G' assay; also: key of the grades not given here
T9 chain: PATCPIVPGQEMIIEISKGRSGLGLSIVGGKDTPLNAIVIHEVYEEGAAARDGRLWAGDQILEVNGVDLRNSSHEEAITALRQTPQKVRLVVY

[15] = molecular target: T10, GST-EZRIN Binding Protein 50 PDZ domain 1 (Homo sapiens (Human)), O14745; assay: G' assay; also: key of the grades not given here
T10 chain: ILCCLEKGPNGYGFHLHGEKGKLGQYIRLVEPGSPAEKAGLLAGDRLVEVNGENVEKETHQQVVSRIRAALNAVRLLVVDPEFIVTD

[16] = molecular target: T11, GST-APXL-1 PDZ domain 1 (Homo sapiens (Human)), Q13796; assay: G' assay; also: key of the grades not given here
T11 chain: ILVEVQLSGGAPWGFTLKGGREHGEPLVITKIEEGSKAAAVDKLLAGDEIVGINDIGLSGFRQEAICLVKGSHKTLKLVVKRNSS

[17] = molecular target: T12, GST-MUPP1 PDZ domain 13 (Homo sapiens (Human)), O75970; assay: G' assay; also: key of the grades not given here
T12 chain: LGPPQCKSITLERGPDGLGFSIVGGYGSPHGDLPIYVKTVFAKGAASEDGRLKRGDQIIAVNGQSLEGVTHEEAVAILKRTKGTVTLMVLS

[18] = molecular target: T13, GST-Outer Membrane PDZ domain 1 (Homo sapiens (Human)), P57105; assay: G' assay; also: key of the grades not given here
T13 chain: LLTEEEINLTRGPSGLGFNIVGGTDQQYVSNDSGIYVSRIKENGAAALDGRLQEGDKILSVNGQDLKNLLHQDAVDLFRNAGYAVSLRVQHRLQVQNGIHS

[19] = molecular target: T14, GST-MUPP1 PDZ domain 10 (Homo sapiens (Human)), O75970; assay: G' assay; also: key of the grades not given here
T14 chain: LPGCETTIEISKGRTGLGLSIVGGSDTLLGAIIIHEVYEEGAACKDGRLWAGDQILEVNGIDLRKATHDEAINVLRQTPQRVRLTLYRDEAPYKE

[20] = molecular target: GST-PIST PDZ domain 1 (Mus musculus (Mouse)), Q8BH60; assay: G' assay; also: key of the grades not given here
[21] = molecular target: T15, GST-Shank 1 PDZ domain 1 (Homo sapiens (Human)), Q9UPX8; assay: G' assay; also: key of the grades not given here
T15 chain: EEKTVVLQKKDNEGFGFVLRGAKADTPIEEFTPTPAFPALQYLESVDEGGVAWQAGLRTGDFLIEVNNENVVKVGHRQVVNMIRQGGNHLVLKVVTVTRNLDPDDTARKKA

[22] = molecular target: T16, GST-PDZK1 PDZ domains 2, 3, 4, Q5T2W1; assay: G' assay; also: key of the grades not given here
T16 chain: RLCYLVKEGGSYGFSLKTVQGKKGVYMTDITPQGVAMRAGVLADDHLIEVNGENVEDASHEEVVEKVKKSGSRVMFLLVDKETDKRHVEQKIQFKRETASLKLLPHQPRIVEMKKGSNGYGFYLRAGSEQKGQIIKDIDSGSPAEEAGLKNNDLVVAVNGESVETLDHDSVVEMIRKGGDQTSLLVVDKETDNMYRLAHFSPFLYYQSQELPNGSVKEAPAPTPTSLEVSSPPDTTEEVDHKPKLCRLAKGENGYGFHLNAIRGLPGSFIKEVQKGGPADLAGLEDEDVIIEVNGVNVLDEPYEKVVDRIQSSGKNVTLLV

[23] = molecular target: T17, GST-MINT1 PDZ domain 2 (Mus musculus (Mouse)), B2RUJ5; assay: G' assay; also: key of the grades not given here
T17 chain: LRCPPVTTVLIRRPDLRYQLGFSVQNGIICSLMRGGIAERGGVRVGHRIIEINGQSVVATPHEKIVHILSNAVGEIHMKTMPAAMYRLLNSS

[24] = molecular target: T18, GST-ZO-2 PDZ domain 1 (Homo sapiens (Human)), Q9UDY2; assay: G' assay; also: key of the grades not given here
T18 chain: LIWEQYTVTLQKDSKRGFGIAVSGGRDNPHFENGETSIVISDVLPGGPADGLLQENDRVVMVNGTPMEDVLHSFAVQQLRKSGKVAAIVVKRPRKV

[25] = molecular target: T19, GST-PTPL1 PDZ domain 2 (Homo sapiens (Human)), Q12923; assay: G' assay; also: key of the grades not given here
T19 chain: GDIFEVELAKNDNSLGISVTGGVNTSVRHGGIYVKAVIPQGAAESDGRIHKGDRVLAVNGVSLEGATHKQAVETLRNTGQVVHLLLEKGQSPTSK

[26] = molecular target: T20, GST-BAI-1 Associated Protein PDZ domain 3 (Homo sapiens (Human)), Q96QZ7; assay: G' assay; also: key of the grades not given here
T20 sequence (Q96QZ7 other isoform, or with tags, fused parts or gaps): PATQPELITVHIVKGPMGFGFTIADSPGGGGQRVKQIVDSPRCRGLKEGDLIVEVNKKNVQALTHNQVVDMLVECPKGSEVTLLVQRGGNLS

[27] = molecular target: T21, GST-PTPL1 PDZ domain 4 (Homo sapiens (Human)), Q12923; assay: G' assay; also: key of the grades not given here
T21 chain: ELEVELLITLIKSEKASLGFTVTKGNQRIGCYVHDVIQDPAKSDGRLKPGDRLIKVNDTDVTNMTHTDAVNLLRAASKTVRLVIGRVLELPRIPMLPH

[28] = molecular target: T22, GST-KIAA1634 PDZ domain 2 (Homo sapiens (Human)), Q5TCQ9; assay: G' assay; also: key of the grades not given here
T22 chain: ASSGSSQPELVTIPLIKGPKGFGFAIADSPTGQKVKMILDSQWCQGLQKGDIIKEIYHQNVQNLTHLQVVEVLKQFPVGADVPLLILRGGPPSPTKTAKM

[29] = molecular target: GST-KIAA0316 PDZ domain 1 (Homo sapiens (Human)), Q14CM0; assay: G' assay; also: key of the grades not given here
Sequence of GST-KIAA0316 PDZ domain 1 (Homo sapiens (Human)), Q14CM0 (Q14CM0 72-159): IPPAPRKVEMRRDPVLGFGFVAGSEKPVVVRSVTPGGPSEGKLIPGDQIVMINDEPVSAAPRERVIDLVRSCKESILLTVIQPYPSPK

[30] = molecular target: T23, GST-MINT1 PDZ domains 1, 2, Q02410; assay: G' assay; also: key of the grades not given here
T23 chain: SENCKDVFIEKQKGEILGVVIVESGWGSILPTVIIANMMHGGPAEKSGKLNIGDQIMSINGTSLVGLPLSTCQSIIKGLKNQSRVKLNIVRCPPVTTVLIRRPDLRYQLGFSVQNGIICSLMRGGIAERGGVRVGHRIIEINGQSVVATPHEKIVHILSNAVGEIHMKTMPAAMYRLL

[31] = molecular target: T24, GST-HEMBA 1003117 PDZ domain 1 (Homo sapiens (Human)), Q96JH8; assay: G' assay; also: key of the grades not given here
T24 chain: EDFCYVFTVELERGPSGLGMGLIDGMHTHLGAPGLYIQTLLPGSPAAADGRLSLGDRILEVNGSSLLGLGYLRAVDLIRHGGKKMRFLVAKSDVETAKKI

[32] = molecular target: T19, GST-PTPL1 PDZ domain 2 (Homo sapiens …); assay: G assay titration, PDZ 0.5 ug/ml
[33] = molecular target: T20, GST-BAI-1 Associated Protein PDZ domain …; assay: G assay titration, PDZ 0.5 ug/ml

Sequence of GST-PSD95 PDZ domains 1, 2, 3 (Homo sapiens), P78352 (P78352 62-395): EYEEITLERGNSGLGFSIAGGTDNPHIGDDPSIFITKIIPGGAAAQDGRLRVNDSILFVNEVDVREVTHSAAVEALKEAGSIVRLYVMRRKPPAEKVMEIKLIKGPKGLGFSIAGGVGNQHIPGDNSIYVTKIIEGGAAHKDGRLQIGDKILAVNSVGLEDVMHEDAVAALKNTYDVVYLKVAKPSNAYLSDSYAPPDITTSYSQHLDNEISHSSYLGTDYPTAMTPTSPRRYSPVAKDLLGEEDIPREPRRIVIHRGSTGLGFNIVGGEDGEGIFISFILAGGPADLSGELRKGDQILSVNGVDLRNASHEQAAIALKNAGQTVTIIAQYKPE

B1: unlabeled 8 amino acid peptide corresponding to the C-terminus of CD95 (peptide)
peptide: RNEIQSLV
modifications: not checked
% binding of labelled 20-mer [1]: 87%
% binding of labelled 20-mer [2]: 100%
% binding of labelled 20-mer [3]: 75%
% binding of labelled 20-mer [4]: 92%

B2: CLASP-2 8-mer (peptide)
peptide: MTSSSSVV
modifications: not checked
% binding of labelled 20-mer [1]: 82%
% binding of labelled 20-mer [2]: 90%
% binding of labelled 20-mer [3]: 80%
% binding of labelled 20-mer [4]: 85%

B3: Na+/Pi cotransporter 2 (peptide)
peptide: PPATPSPRLALPAHHNATRL
modifications: not checked
Classification [5]: 2 A450 class
Classification [6]: 1 A450 class
Classification [7]: 5 A450 class
Classification [8]: 1 A450 class
Classification [9]: 5 A450 class
Classification [10]: 5 A450 class
Classification [11]: 4 A450 class
Classification [12]: 1 A450 class
Classification [13]: 2 A450 class
Classification [14]: 1 A450 class
Classification [15]: 5 A450 class
Classification [16]: 1 A450 class
Classification [17]: 1 A450 class
Classification [18]: 1 A450 class
Classification [19]: 1 A450 class
Classification [20]: 1 A450 class
Classification [21]: 5 A450 class
Classification [22]: 1 A450 class
Classification [23]: 1 A450 class
Classification [24]: 1 A450 class

B4: serotonin receptor 5HT-2B (peptide)
peptide: DTLLLTENEGDKTEEQVSYV
modifications: not checked
Classification [7]: 1 A450 class
Classification [25]: 5 A450 class
Classification [10]: 1 A450 class
Classification [12]: 2 A450 class
Classification [26]: 4 A450 class
Classification [20]: 1 A450 class
Classification [27]: 2 A450 class
Classification [28]: 5 A450 class
Classification [29]: 1 A450 class
Classification [30]: 1 A450 class
Classification [23]: 1 A450 class
Classification [31]: 1 A450 class
Kd [32]: 200 nM
Kd [33]: 2000 nM
